Experimental data reported in US20240002543A1 (MARENGO THERAPEUTICS, published 2024).

T1: cynomolgus CD3e (cynomolgus, UniProt Q95LI5 22-117)
T1 chain: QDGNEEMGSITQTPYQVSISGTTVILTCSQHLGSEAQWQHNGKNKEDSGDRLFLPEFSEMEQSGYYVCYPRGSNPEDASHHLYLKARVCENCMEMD

T2: cynomolgus CD3e (cynomolgus, UniProt Q95LI5 22-117, limits assumed)
T2 construct: also called cCD3e; cyno CD3e
T2 sequence (looked up): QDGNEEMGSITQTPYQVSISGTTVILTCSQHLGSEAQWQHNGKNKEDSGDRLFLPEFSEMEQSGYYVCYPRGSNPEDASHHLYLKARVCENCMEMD

T3: Human CD3e (Acro Biosystems CDE-H5223) (human, UniProt P07766 23-126)
T3 chain: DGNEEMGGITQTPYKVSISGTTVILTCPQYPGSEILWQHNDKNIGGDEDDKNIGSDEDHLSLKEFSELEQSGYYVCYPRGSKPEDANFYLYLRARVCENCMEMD


Experiments:
cynomolgus CD3e [1] = molecular target: T1, cynomolgus CD3e; test: SPR
[2] = molecular target: T4, Human CD3e (Acro Biosystems CDE-H5223) (human, UniProt P07766 23-126); test: SPR (Biacore T200), antibody captured via anti-human Fc, CD3e as analyte, 1:1 model
T4 construct: Analyte in SPR; also called huCD3e
Protocol: (§1) In this example, exemplary humanized anti-CD3 antibody molecules BKM0020, BKM0025, BKM0028, BKM0038 (as described herein) were tested for their binding affinity to human or cynomolgus CD3e using surface plasmon resonance (SPR). SPR measurements were performed by using the BIAcore T200. Each construct was immobilized on a CM5 chip via Anti-human Fc antibody to a response of 200 RU. Human CD3e (Acro Biosystems CDE-H5223) was diluted to 500 nM and then diluted two-fold. Each analyte concentration was injected at a flow rate of 20 μl/min over the surface on which each antibody was immobilized. The data was fit using a 1:1 binding model. Affinity to human CD3e was preserved compared to the parental and affinity to cyno CD3e was two to three-fold lower compared to the parental antibody.

cynomolgus CD3e [3] = molecular target: T2, cynomolgus CD3e; test: as above
Protocol: as §1

[4] = molecular target: T3, Human CD3e (Acro Biosystems CDE-H5223); test: SPR
[5] = molecular target: T5, human CD3e on Jurkat cells (human, UniProt P07766 23-207); test: flow cytometry (FACS) on Jurkat cells, 3-fold dilutions from 10 ug/ml, anti-human IgG AF647
T5 construct: whole, on cells; also called huCD3e; CD3 expressed on Jurkat cells
Protocol: Binding of the exemplary humanized anti-CD3 antibodies to CD3-expressing Jurkat cells was performed using FACS. Antibodies were tested in a series of 3-fold dilutions starting with 10 ug/ml concentration and detected using anti-human IgG secondary antibodies conjugated to AF647.

| Binder | Kd (cynomolgus CD3e [1]) [nM] | binding result [2] | binding result (cynomolgus CD3e [3]) | Kd [4] [nM] | binding result [5] |
| --- | --- | --- | --- | --- | --- |
| BKM0025 (humanized anti-CD3 antibody molecule) (antibody, V domains shown, Captured via anti-human Fc antibody in SPR; constant regions not tied) VH: QVQLVQSGAEVKKPGASVKVSCKASGYTFTTYWMHWVRQAPGQGLEWMGNFNPNNGDTNYNEKFKTRVTMTVDKSTSTAYMELRSLRSDDMAVYYCARDDYGRYYFDYWGQGTLVTVSS VL: EIVMTQSPATLSLSPGERATLSCKSSQSLLNSRTRKNYLAWYQQKPGLAPRLLIYWAFTRESGIPDRFSGSGSGTDFTLTISRLEPEDFAVYYCKQSFILRTFGGGTKVEIK | 18.3 | binds | binds |  |  |
| BKM0020 (humanized anti-CD3 antibody molecule) (antibody, V domains shown, Captured via anti-human Fc antibody in SPR, so it carries a human Fc; constant regions not tied) VH: QVQLVQSGAEVKKPGASVKVSCKASGYTFTTYWMHWVRQAPGQGLEWMGNFNPNNGDTNYNEKFKTRVTMTVDKSTSTAYMELRSLRSDDMAVYYCARDDYGRYYFDYWGQGTLVTVSS VL: DIQMTQSPSTLSASVGDRVTITCKSSQSLLNSRTRKNYLAWYQQKPGKAPKLLIYWAFTRESGVPSRFSGSGSGTEFTLTISSLQPDDFATYYCKQSFILRTFGGGTKVEIK | 9.98 | binds | binds | 6.34 | binds |

Further lines, results first:

| Kd (cynomolgus CD3e [1]) [nM] | binding result [2] | binding result (cynomolgus CD3e [3]) | Kd [4] [nM] | binding result [5] | Binder |
| --- | --- | --- | --- | --- | --- |
| 14.1 | binds | binds | 4.72 |  | BKM0028 (humanized anti-CD3 antibody molecule) (antibody, V domains shown, Captured via anti-human Fc antibody in SPR; constant regions not tied) VH: QVQLVQSGAEVKKPGASVKVSCKASGYTFTTYWMHWVRQAPGKGLEWMGNFNPNNGDTNYNEKFKTRVTMTVDKSTSTAYMELSSLRSEDTAVYYCARDDYGRYYFDYWGQGTLVTVSS VL: EIVMTQSPATLSLSPGERATLSCKSSQSLLNSRTRKNYLAWYQQKPGLAPRLLIYWAFTRESGIPDRFSGSGSGTDFTLTISRLEPEDFAVYYCKQSFILRTFGGGTKVEIK |
| 14.1 | binds | binds | 6.47 |  | BKM0038 (humanized anti-CD3 antibody molecule) (antibody, V domains shown, Captured via anti-human Fc antibody in SPR; constant regions not tied) VH: QVQLVQSGAEVKKPGASVKVSCKASGYTFTTYWMHWVRQAPGKGLEWMGNFNPNNGDTNYNEKFKTRVTMTVDKSTSTAYMELSSLRSEDTAVYYCARDDYGRYYFDYWGQGTLVTVSS VL: DIQMTQSPSSLSASVGDRVTITCKSSQSLLNSRTRKNYLAWYQQKPGKAPKLLIYWAFTRESGVPSRFSGSGSGTDFTLTISSLQPEDFATYYCKQSFILRTFGGGTKVEIK |
